Paper PMC6637871, “Structural and functional insights into the modulation of the activity of a flax cytokinin oxidase by flax rust effector AvrL567‐A” (Molecular Plant Pathology, 2018)

B1: LuCKX1.1 (Linum usitatissimum) (protein)
chain: LQGSIDYSTLAADFTGKDFGGVYSSNPLALIRPSGADDVARVLKSACRSSNLTVAARGNGHSINGQAMADGGIVLDMRSTEGNHFKILRINGGDHTAYADVSGGALWEDILMRCVSEYGLAPRSWTDYLRLTVGGTLSNAGVSGQAFRYGPQSSNVTELDVVTGKGDFLTCSPTHNSDLFFGALGGLGQFGVITRARIPLEPAPDMVRWIRMVYAEFEDFSRDAEWLVTQPEKESFDYVEGFAFVNSDSPADGWPSVPLYPNHMMEPTTPIHSGHQLLYCLELALHFNHSNSSSTVDSVVKRLIGGLRYMKGFKYEVDLSYVEFVMRVKRVEEDARAHGMWDAPHPWLNLFVSKADIAEFDRLIFKGLLHDGVGGPMLVYPLLRSKWDSRSSVVLPEGEDEIFYIVALLRSNPPYPKGPSVDKLVSQNDKIIQSCIQHGLGFKLYLPHYQSQHDWRRHFGDQWSKFVQLKLAFDPMAVLAPGQKIFTRTTK
notes: crystal model residues 44-532, two molecules per asymmetric unit; FAD covalently linked to His104
B2: AvrL567-A protein (residues 24-150), purified (natural protein)
chain: MEHVPAELTRVSEGYTRFYRSPTASVILSGLVKVKWDNEQMTMPLFKWIGGEQAEELHFCVHIAHSSGPKLNRARSLGTVNSNMDQHWAQAQRNSGATRRTIEGFHLFENDIPNFPDYIKIKLVPKT

Key:
purified protein [1] = substrate: CC(C)=CCNc1ncnc2nc[nH]c12; assay: purified protein; assay type: biochemical, Linum usitatissimum; conditions: 0.5 mM DCPIP as electron acceptor, 1.6 µM LuCKX1.1, McIlvaine buffer pH 7.5, no AvrL567-A
purified protein [2] = substrate: C/C(=C\CNc1ncnc2[nH]cnc12)CO; assay: purified protein; conditions: 0.5 mM DCPIP as electron acceptor, 1.6 µM LuCKX1.1, McIlvaine buffer pH 7.5, no AvrL567-A
[3] = target: LuCKX1.1 protein (residues 44-534), purified (flax (Linum usitatissimum))

Binder	Km (purified protein [1])	kcat (purified protein [1])	Km (purified protein [2])	kcat (purified protein [2])	turnover rate (Kcat) of LuCKX1.1 towards 2iP in the DCPIP kinetic assay, with 1.6 uM AvrL567-A against without it [3]	turnover rate (Kcat) of LuCKX1.1 towards tZ in the DCPIP kinetic assay, with 1.6 uM AvrL567-A against without it [3]
B1	44 µM	5.4 s⁻¹	64 µM	0.69 s⁻¹		
B2					50%	130%
